# Tested on: MS2 coat protein
# Assay: apparent KD of MS2 coat protein; designed switch direction (-1 OFF switch, 1 ON switch): -1; higher = weaker reporter binding
# Procedure, shortened: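 Designed RNA switches with common flanks were transcribed on Illumina chips by stalled E. coli RNA polymerase and titrated with SNAP-549-labelled MS2 coat protein, from 0.7 or 1.5 nM doubling to 3 µM, in Tris-HCl pH 7.5 buffer with KCl, MgCl2, BSA, DTT, tRNA and Tween-20. Steps lasted 0.8–1.5 h (lowest) to 10–20 min (highest). Titrations ran without input, with 200 uM small-molecule ligand, or with an oligonucleotide input. Normalised cluster fluorescence was curve-fitted, and apparent KD is the per-design median over clusters.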
# [1] = input ligand: microRNA oligo, concentration not stated
# [2] = Eterna round: R95, input ligand: microRNA oligo, concentration not stated
Sequence,apparent KD of MS2 coat protein (input ligand: FMN 200 uM) [nM],apparent KD of MS2 coat protein [1] [nM],apparent KD of MS2 coat protein (input ligand: none) [nM],apparent KD of MS2 coat protein [2] [nM]
"GCUCGCGGGCAAGGAUAUCCUACGCUGUUCUGGCCCGUGUCUGUUACAUGAGGAUCACCCAUGUGGGAGAAGGUGCACCAGGGC [Design 46] (Eterna round: R96, puzzle: Exclusion NG 2)",19.7,11.9,19.1,
"GCUGCUAGAGGAUAUACAUGAGGAUCACCCAUGUGAAAUUAUAGUGAGGAAAUGAAAAGUAGAAGGCUAGUAGA [Mod of Mat 16 - Jieux - Exclusion 3] (Eterna round: R97, puzzle: Exclusion 3)",381,,36.2,
GCUGGGUCAGGAUAUACAAGAUCGAAAGAUCAAAGAUUCGUACAUGAGGAUCACCCAUGUAGAAGGGACUGGGC [ChP 11-04-2015 #8] (puzzle: Exclusion 2),,,,17.2
GCUGGGUCAGGAUAUACAAGAUCGAAAGAUCUGUGAAACGAACAUGAGGAUCACCCAUGUAGAAGGGACUGGGC [ChP 11-04-2015 #9] (puzzle: Exclusion 2),,,,16.6
"GCUGGUCAAGGAUAUACAUGAGGAUCACCCAUGUAGAUCAACCAGCGAUAGCUGGAAUGUAGAAGGUGACCAGC [E3/5-C1] (Eterna round: R97, puzzle: Exclusion 3)",48.4,,15.5,
"GCUGGUCGAGGAUAUACAUGAGGAUCACCCAUGUUGAUCAACUGCCGAUAGGCAGAAUGUAGAAGGCGACCAGC [E3/7-A1] (Eterna round: R97, puzzle: Exclusion 3)",137,,1110,
"GCUGGUCGAGGAUAUAUAUGACGUGCUUCGGCACGAAGGUCACAUGAGGAUCACCCAUGUAGAAGGUGACCAGC [E2/9-B1] (Eterna round: R97, puzzle: Exclusion 2)",110,,42,
"GCUGUGAAUCAGGAUAUGCGGAUAAAGAGUGCCGCAGAAGGGAUAACAUGAGGAUCACCCAUGUUCCUGCAUGA [Eternabot (L2) Solution 99] (Eterna round: R97, puzzle: Exclusion 6)",26.5,,20.9,
GGAAAGUGAGGAUAUGGUAAAGUAAGUAUGUAGUAAGUAAUCCAGAAGGCACAUGAGGAUCACCCAUGUAAAUG [Mat - Exclusion 4 - D100] (puzzle: Exclusion 4),,,,27.2
"GGAAGGCGAGGAUAUACAAUAAAGAAAGAGAAAGACGUGAGACAUGAGGAUCACCCAUGUAGAAGGUGCGGAGA [AK-MS2ROC-r4-exclusion2-13] (Eterna round: R97, puzzle: Exclusion 2)",37.3,,34.3,
"GGACCAAGUCUAGGAUAUUUCAAUAGUUGUGUGAGAGAAGGAGAAUAACAUGAGGAUCACCCAUGUACCUCAAGUAGGCCGAUU [Eternabot solution 16] (Eterna round: R96, puzzle: Exclusion NG 1)",59.2,36.2,48,
"GGACCGAGUGUGAGGAUAUGCUGGUCCUUGGAUCAGCAGAAGGCACAUGAGGAUCACCCAUGUGGAGACGGUCC [Eli bmx4 4.33] (Eterna round: R97, puzzle: Brourd's mod of Exclusion 4)",1050,,87.4,
"GGACCUCCUGAGGAUAUUGUAUCACCCGACUGAUAAGAAGGCAGAACAUGAGGAUCACCCAUGUGGGUACUCGG [Bingo-Bango-14] (Eterna round: R97, puzzle: Exclusion 6)",34.6,,38.4,
"GGAGAGUGAGGAUAUACAUGAGGAUCACCCAUGUAUAUCAAAUAAAAUAAAUUCUCAUGUAGAAGGCGCUUUUC [Alacar 3rd Attempt] (Eterna round: R97, puzzle: Exclusion 3)",16.2,,14.4,
"GGAGAUCGAGGAUAUACAUGAGGAUCACCCAUGUCCGUAGACUGGGAUCGCGGCAGUGGUAGAAGGUGGAAAAU [Eternabot (L2) Solution 67] (Eterna round: R97, puzzle: Exclusion 3)",112,,160,
"GGAGCAAGUGUCAGGAUAUCGUGGUCGAUAGAUCACGAGAAGGGACAUGAGGAUCACCCAUGUGCCUCAGCUCC [Mat - Exclusion 4 - Eli Mod - D60] (Eterna round: R97, puzzle: Brourd's mod of Exclusion 4)",736,,214,
"GGAGGACGAGCAGGAUAUUUUCACAUGAGGAUCACCCAUGUGUACUCAGGGUAAUCCUCCGCCGAAAAGAAGGGUUCGGAAUAA [Mat - Exclusion NG 2 - Mod of JL - D81] (Eterna round: R96, puzzle: Exclusion NG 2)",39.8,27.8,74.1,
"GGAGGAGAGUUAGGAUAUACAAGAAGAAUGUGAGUAGAAGGAACGGAACAUGAGGAUCACCCAUGUCCCAUGUGGAGGAGGAGG [Kawasakiqro] (Eterna round: R96, puzzle: Exclusion NG 1)",46.2,25.3,30.9,
"GGAGGUAUUUAGGAUAUGAUGUACGACGCAGGUUCAGAAGGGAGUACAUGAGGAUCACCCAUGUGGCCUCAUCC [Eternabot (L2) Solution 47] (Eterna round: R97, puzzle: Exclusion 6)",1200,,2010,
GGAUAGUGAGGAUAUCGAUGUUAGGAGGAGGAGGUAGGAGGCGAGAAGGCACAUGAGGAUCACCCAUGUAUGGU [JR_Exclu4_Sub069] (puzzle: Exclusion 4),,,,28.2
"GGAUCAUAUGUCAGGAUAUGCUGGACCUUGGUUCAGCAGAAGGGACAUGAGGAUCACCCAUGUCAUGGAGAUCC [Mat - Exclusion 4 - Eli Mod - D53] (Eterna round: R97, puzzle: Brourd's mod of Exclusion 4)",270,,415,
"GGAUCGAAUGUGAGGAUAUGCUGGUCCUUGGAUCAGCAGAAGGCACAUGAGGAUCACCCAUGUGAUCAAGAUCC [Eli bmx4 4.77] (Eterna round: R97, puzzle: Brourd's mod of Exclusion 4)",58.3,,910,
"GGAUCGAGAGUGAGGAUAUGCUGGUCCUUGGAUCAGCAGAAGGCACAUGAGGAUCACCCAUGUGAUUUCGAUCC [Mat - Exclusion 4 - Eli Mod - D40] (Eterna round: R97, puzzle: Brourd's mod of Exclusion 4)",34.6,,18.1,
GGAUCGAGUGUGAGGAUAUACCACUGGAUACAGUGGUAGAAGGCACAUGAGGAUCACCCAUGUCCUUACGAUCC [Fiskers BMX 4 - 46] (puzzle: Brourd's mod of Exclusion 4),,,,66
GGAUCGAGUGUGAGGAUAUGCAGGUCCUUGGAUCUGCAGAAGGCACAUGAGGAUCACCCAUGUGGAAACGGUCC [Mat - Exclusion 4 - JL Mod - D76] (puzzle: Brourd's mod of Exclusion 4),,,,58.9
"GGAUGCUGAGUAAGGAUAUGGUAGGCUUGCGCAAACCAGAAGGUACAUGAGGAUCACCCAUGUAAGCAUCCAGU [eternacac ex4r4 #4] (Eterna round: R97, puzzle: Brourd's mod of Exclusion 4)",16.3,,14.5,

# From the supplement of paper PMC9170038
